Source: US20180244760A1 (UNIVERSITY OF MARYLAND BALTIMORE, published 2018)

Tests used:
[1] = molecular target: T1, Clostridium difficile toxin B (TcdB) (Clostridium difficile, UniProt P18177 2-2366); assay: sandwich ELISA: TcdB coated, Habab titrated, TcdA at 40 ng/ml detected
T1 construct: also called TxB

[2] = molecular target: T1, Clostridium difficile toxin B (TcdB); assay: cell-based or functional assay
[3] = molecular target: T1, Clostridium difficile toxin B (TcdB); assay: ELISA, plate coated with 1 ug/ml TcdB

T1 sequence (P18177 2-2366 limits assumed): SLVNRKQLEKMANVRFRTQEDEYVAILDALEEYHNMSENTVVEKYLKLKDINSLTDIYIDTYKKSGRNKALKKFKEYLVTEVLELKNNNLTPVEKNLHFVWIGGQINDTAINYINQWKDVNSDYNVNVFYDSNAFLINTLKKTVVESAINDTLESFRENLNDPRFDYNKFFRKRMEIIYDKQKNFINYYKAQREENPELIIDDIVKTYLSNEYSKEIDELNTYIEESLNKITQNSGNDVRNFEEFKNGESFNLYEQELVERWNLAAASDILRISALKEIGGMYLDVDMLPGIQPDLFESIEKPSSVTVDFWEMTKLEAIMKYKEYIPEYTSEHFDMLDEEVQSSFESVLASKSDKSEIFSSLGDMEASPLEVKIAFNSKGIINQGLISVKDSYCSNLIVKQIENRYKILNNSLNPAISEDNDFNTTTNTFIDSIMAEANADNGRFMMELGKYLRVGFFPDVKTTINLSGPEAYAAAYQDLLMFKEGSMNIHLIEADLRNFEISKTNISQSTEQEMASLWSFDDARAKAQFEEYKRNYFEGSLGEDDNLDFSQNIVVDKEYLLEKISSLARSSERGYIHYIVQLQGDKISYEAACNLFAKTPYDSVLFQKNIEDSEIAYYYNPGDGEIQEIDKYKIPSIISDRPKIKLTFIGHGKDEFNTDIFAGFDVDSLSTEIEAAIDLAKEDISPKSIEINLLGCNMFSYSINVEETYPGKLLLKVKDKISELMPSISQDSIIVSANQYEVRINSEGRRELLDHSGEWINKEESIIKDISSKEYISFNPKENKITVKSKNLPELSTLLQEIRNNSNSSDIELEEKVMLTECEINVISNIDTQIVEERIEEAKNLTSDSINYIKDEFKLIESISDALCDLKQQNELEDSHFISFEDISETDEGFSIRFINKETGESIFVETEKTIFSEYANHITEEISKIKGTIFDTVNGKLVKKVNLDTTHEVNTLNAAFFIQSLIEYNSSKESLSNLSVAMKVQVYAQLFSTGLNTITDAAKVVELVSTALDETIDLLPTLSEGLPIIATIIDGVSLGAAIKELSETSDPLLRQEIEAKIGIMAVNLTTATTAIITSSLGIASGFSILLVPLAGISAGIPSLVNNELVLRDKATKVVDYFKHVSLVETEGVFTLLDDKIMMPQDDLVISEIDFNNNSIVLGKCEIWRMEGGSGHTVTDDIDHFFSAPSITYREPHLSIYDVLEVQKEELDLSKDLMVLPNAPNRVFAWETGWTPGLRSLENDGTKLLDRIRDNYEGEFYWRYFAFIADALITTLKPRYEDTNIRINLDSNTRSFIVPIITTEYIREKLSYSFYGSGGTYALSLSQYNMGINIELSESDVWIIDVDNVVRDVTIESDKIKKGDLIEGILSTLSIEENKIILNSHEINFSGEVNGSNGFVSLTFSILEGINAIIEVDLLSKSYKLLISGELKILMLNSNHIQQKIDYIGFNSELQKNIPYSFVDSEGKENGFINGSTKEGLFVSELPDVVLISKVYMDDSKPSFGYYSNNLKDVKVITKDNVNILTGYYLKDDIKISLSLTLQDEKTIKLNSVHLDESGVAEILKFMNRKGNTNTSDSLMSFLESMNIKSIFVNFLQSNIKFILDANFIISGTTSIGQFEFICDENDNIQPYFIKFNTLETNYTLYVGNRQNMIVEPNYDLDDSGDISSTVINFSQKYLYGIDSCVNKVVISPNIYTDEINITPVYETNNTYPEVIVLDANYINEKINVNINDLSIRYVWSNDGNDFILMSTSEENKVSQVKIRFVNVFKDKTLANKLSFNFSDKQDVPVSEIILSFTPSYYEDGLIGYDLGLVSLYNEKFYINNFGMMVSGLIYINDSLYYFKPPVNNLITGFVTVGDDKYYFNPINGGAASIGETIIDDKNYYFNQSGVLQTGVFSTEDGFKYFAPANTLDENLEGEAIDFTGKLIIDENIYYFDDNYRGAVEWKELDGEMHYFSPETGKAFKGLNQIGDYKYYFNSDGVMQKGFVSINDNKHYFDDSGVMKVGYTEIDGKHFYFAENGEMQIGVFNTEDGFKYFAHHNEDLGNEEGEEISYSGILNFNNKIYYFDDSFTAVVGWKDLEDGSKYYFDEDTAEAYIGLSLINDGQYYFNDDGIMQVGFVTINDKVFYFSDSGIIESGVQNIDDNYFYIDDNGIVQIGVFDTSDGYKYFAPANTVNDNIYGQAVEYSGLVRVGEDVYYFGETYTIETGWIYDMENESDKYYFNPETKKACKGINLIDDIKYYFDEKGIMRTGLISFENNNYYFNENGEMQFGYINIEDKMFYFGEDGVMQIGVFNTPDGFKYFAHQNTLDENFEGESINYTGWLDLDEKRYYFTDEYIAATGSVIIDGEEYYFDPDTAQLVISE

Row | Binder | EC50 (read off the curve) [1] | neutralization of the TcdB cytopathic effect on Vero cells, fold potency over the Merck antibody [2] | EC50 (read off the curve) [3]
1 | ABAB-IgG1 tetra-specific, octameric binding agent (bispecific antibody, also called IgG-ABAB; IgG-ABBA) heavy: not shown light: QLQLVETGGGLVQPGGSLRLSCAASGFTFSDYVMTWVRQAPGKGPEWIATINTDGSTMRDDSTKGRFTISRDNAKNTLYLQMTSLKPEDTALYYCARGRVISASAIRGAVRGPGTQVTVSSGGGGSGGGGSGGGGSQVQLVESGGGLVQTGGSLRLSCASSGSIAGFETVTWSRQAPGKSLQWVASMTKTNNEIYSDSVKGRFIISRDNAKNTVYLQMNSLKPEDTGVYFCKGPELRGQGIQVTVSSRTVAAPSVFIFPPSDEQLKSGTASVVCLLNNFYPREAKVQWKVDNALQSGNSQESVTEQDSKDSTYSLSSTLTLSKADYEKHKVYACEVTHQGLSSPVTKSFNRGEC | ~0.05 µg/mL | ≥ 1000 fold | –
2 | VHH peptide monomer E3 (VHH, also called VHH E3) VHH: QVQLVESGGGLVQTGGSLRLSCASSGSIAGFETVTWSRQAPGKSLQWVASMTKTNNEIYSDSVKGRFIISRDNAKNTVYLQMNSLKPEDTGVYFCKGPELRGQGIQVTVSS | – | – | ~0.01 µg/mL
